# Data published in patent publication US20050201975A1 (published 2005).
# B1: GAL4AD fusion protein encoded by plasmid 8-7 (splice variant of the human homologue of mouse C2PA) (other, not shown: small tags and cut ends)
# chain: GRATQGAHARLTGPVRAPAAGGELGFHGAAAEAGPAAMNRFNGLCKVCSERRYRQITIPRGKDGFGFTICCDSPVRVQAVDSGGPAERAGLQQLDTVLQLNERPVEHWKCVELAHEIRSCPSEIILLVWRMVPQVKPGPDGGVLRRASCKSTHDLQSPPNKREKNCTHGVQARPEQRHSCHLVCDSSDGLLLGGWERYTEVAKRGGQHTLPALSRATAPTDPNYIILAPLNPGSQLLRPVYQEDTIPEESGSPSKGKSYTGLGKKSRLMKTVQTMKGHGNYQNCPVVRPHATHSSYGTYVTLAPKVLVFPVFVQPLDLCNPARTLLLSEELLLYEGRNKAAEVTLFAYSDLLLFTKEDEPGRCDVLRNPLYLQSVKLQEGSSEDLKFCVLYLAEKAECLFTLEAHSQEQKKRVCWCLSENIAKQQQLAASPPDSKKLHPFGSLQQEMGPVNSTNATQDRSFTSPGQTLIG
# notes: Prey from a human spleen cDNA library (Clontech); also called colony 8-7
# B2: GAL4BD-N1 fragment (1762-1829) fusion protein (other)
# chain: MKLLSSIEQACDICRLKKLKCSKEKPKCAKCLKNNWECRYSPKTKRSPLTRAHLTEVESRLERLEQLFLLIFPREDLDMILKMDSLQDIKALLTGLFVQDNVNKDAVTDRLASVETDMPLTLRQHRISATSSSEESSNKGQRQLTVSPEFRRQHGQLWFPEGFKVSEASKKKRREPLGEDSVGLKPLKNASDGALMDDNQNEWGDEDLETKKFRFEDPSTCSQANSGRISYDL
# notes: Expressed in yeast strain AH109 from pLOR67 (yeast two-hybrid bait); Notch1 numbering per AAG33848; also called bait protein
# What was measured:
# GAL4BD alone = biological target: T1, GAL4BD alone (UniProt P04386 1-147); assay: yeast two-hybrid (HIS3, ADE2, LacZ reporters) in AH109
# T1 construct: domain: GAL4BD; Three empty GAL4BD expression constructs were used as controls; also called pBD-GAL4cam; pBRIDGE
# From the text: AH109pLOR67 and AH109 transformed with GAL4BD expression constructs pBD-GAL4cam (Stratagene), pBRIDGE (Clontech) and pLOR32 were used to assess whether the GAL4AD fusion proteins encoded by plasmids 8-2 and 8-7 interacted in a repeatable and specific manner with the Notch1(₁₇₆₂₋₁₈₂₉) domain of the GAL4BDN1(₁₇₆₂₋₁₈₂₉) fusion protein.
# These yeast stains along with AH109pLOR67 were then transformed with either 8-2 (CBF 1 fragment) or 8-7 and plated on —WL, —WLH, —WLHA, —WLHAXαGAL plates. An alternative to XaGAL was also employed to assess LacZ expression. Yeast colonies grown on —WLHA plates, were transferred to filter paper by placing the appropriately sized piece of 3 mm Whatman paper over the screen plate and pressing down firmly over the whole surface of the plate. The orientation of the paper was then marked and the paper lifted with a jerking action, lifting the colonies from the agar. The yeast colonies were permeabilised by placing the filter papers in liquid nitrogen, and then allowing them to thaw. This cycle was repeated three times in total. 1.8 ml Z buffer containing X-gal was added to each filter paper, the papers were then monitored for the next 6 hours for the production of blue colour.
# GAL4AD protein = biological target: T2, GAL4AD protein (UniProt P04386 768-881); assay: yeast two-hybrid bait specificity check in AH109pLOR67
# T2 construct: domain: GAL4AD
# T2 sequence (looked up): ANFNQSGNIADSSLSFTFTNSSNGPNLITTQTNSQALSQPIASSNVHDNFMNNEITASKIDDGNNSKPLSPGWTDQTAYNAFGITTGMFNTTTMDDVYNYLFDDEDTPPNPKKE
Binder,binding result (GAL4BD alone),binding result (GAL4AD protein)
B1,no binding,
B2,,no binding
